The values below come from patent US20070021595A1.

Test [1] deals with HBV recombinant antigen GST-pre-S1(1-56) (hepatitis B virus). Kind of test: competitive ELISA, pre-S1 antigen in solution and on plate.
Test [2] shares this target. Kind of test: competitive ELISA, GST-pre-S1(1-56) on plate, COS7 supernatant.
Test [3] shares this target. Kind of test: competitive ELISA as in Test Example 2.
For test [4] the target is unchanged. Briefly: competitive ELISA as in Test Example 2, purified antibody from CHO cells.

B1: chimeric antibody chKR127 (wild type) (antibody, V domains shown)
VH: QVQLVQSGAEVKAPGASVKVSCKASGYTFTSAWMNWVRQAPGQGLEWMGRIYPSGGSTSYAQKFQGRVTMTADKSTSTVYMELSSLRSEDTAVYYCAREYRVARWGQGTLVTVSA
VL: DIVMTQTPLSLSVTPGQPASISCKSSQSLLYSNGKTYLNWLLQKPGQPPQRLIYLVSNRDSGVPDRFSGSGSGTDFTLKISRVEAEDVGVYYCVQGTHFPQTFGGGTKVEIK
Regarding B1, the figures for the dissociation constant (Kd) in test [1] and in test [2] were 8.2 nM and 11 nM, respectively.

B2: humanized antibody of humanized heavy chain HuKR127HC (HuKR127VH-VII) and humanized antibody HZKR127I light chain (antibody, part only; not given: Light chain, V domains shown, part only)
VH: B1 VH
Take B2: in test [3], the dissociation constant Kd came to 0.15 nM and the fold higher affinity than HZKR127I stood at 50 fold.

B3: humanized antibody HuKR127 (antibody, V domains shown)
VH: B1 VH
VL: B1 VL
Consider B3, for which, in test [4], the Kd worked out at 0.16 nM and the fold higher affinity than the control group was determined as 50 fold.
